Residue numbers refer to the chain shown, from its start. Blank lines part the entries; values can stand above or below the molecule they belong to. Ends that are not written are not given here.
What was measured:
[1] = target: TAEHDEL retrieval-signal peptide (unlabelled) K to H at position -4 relative to TAEKDEL (K651H in human BiP numbering) (UniProt P11021); experiment: radioligand filter-binding assay, competition of unlabelled peptide against [3H]-TAEHDEL; conditions: pH 5.4; 20°C; 40 mM Sodium Chloride; 20 mM MES pH 5.4 (default assay buffer 'unless stated otherwise'; pH not restated for this experiment)
Sequence of TAEHDEL retrieval-signal peptide (unlabelled) K to H at position -4 relative to TAEKDEL (K651H in human BiP numbering) (P11021 whole entry K651H, looked up, tested part not stated): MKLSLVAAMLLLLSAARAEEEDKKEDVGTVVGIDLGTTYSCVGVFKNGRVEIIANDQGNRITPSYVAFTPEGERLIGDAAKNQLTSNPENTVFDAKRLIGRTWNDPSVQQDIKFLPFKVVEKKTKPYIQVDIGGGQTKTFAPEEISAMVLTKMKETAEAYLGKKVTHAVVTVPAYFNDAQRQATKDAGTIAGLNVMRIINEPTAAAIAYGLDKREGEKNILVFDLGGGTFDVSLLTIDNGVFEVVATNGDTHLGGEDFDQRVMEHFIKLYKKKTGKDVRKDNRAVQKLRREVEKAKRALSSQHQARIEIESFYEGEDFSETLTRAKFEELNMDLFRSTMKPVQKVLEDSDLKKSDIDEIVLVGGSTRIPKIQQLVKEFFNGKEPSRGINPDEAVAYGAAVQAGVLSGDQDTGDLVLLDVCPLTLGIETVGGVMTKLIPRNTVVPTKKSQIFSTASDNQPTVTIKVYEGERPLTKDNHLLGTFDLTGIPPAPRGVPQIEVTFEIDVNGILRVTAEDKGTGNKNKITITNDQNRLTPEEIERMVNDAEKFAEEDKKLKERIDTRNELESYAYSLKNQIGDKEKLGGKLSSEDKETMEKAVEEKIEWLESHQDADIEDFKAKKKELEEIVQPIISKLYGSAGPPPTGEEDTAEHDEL

[2] = target: TAEKDEL retrieval-signal peptide (unlabelled) (UniProt P11021); experiment: as above; conditions: pH 5.4; 20°C; 40 mM Sodium Chloride; 20 mM MES pH 5.4 (default assay buffer 'unless stated otherwise'; pH not restated for this experiment)
Sequence of TAEKDEL retrieval-signal peptide (unlabelled) (P11021 whole entry, looked up, tested part not stated): as the sequence (P11021 whole entry K651H, looked up, tested part not stated) above, with H651K counted along it

[3] = target: TAERDEL retrieval-signal peptide (unlabelled) K to R at position -4 relative to TAEKDEL (K651R in human BiP numbering) (UniProt P11021); experiment: as above; conditions: pH 5.4; 20°C; 40 mM Sodium Chloride; 20 mM MES pH 5.4 (default assay buffer 'unless stated otherwise'; pH not restated for this experiment)
Sequence of TAERDEL retrieval-signal peptide (unlabelled) K to R at position -4 relative to TAEKDEL (K651R in human BiP numbering) (P11021 whole entry K651R, looked up, tested part not stated): as the sequence (P11021 whole entry K651H, looked up, tested part not stated) above, with H651R counted along it

[4] = target: [3H]-TAEHDEL retrieval-signal peptide K to H at position -4 relative to TAEKDEL (K651H in human BiP numbering) (UniProt P11021); experiment: radioligand filter-binding assay, direct titration (scintillation counting); conditions: 20°C, 40 mM Sodium Chloride, 20 mM MES pH 5.4 (default), the buffers used for the other pH values of Figure 3f (up to pH 7.0) are not stated
Sequence of [3H]-TAEHDEL retrieval-signal peptide K to H at position -4 relative to TAEKDEL (K651H in human BiP numbering) (P11021 whole entry K651H, looked up, tested part not stated): as the sequence (P11021 whole entry K651H, looked up, tested part not stated) above

[5] = target: [3H]-TAEKDEL retrieval-signal peptide (UniProt P11021); experiment: as above; conditions: pH 5.4; 20°C; 40 mM Sodium Chloride; 20 mM MES pH 5.4 (default); the buffers used for the other pH values of Figure 3f (up to pH 7.0) are not stated
Sequence of [3H]-TAEKDEL retrieval-signal peptide (P11021 whole entry, looked up, tested part not stated): as the sequence (P11021 whole entry K651H, looked up, tested part not stated) above, with H651K counted along it

[6] = target: [3H]-TAEKDEL retrieval-signal peptide (UniProt P11021); experiment: in vitro binding assay of Bräuer et al. 2019 (not described here; presumably the same [3H]-TAEKDEL filter-binding assay); conditions: pH 6.4; cited from earlier work
chicken KDELR2 = target: T1, chicken KDELR2 (Gallus gallus, UniProt Q5ZKX9); experiment: Competition binding assay, [3H]-TAEHDEL against unlabelled peptide; conditions: for IC50: competition with [3H]-TAEHDEL, free (COOH) or amidated (CONH) C-terminus, pH 5.4, read-out: Competitor peptide IC50
T1 construct: GFP (of the pDDGFP vector); made in house; host or cells: Saccharomyces cerevisiae Bj5460
T1 sequence (Q5ZKX9 1-212): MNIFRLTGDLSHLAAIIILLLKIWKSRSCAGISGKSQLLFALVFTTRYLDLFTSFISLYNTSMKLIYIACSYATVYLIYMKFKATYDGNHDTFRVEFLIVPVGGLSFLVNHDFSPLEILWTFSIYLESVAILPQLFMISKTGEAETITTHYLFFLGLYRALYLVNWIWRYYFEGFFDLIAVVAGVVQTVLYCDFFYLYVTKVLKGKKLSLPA
Description: (§1) Figure 1. ER retrieval signal abundance and affinity are not correlated. (a) Sequence logos for ER resident proteins with C-terminal KDEL retrieval signals and variants thereof calculated using frequency or protein abundance ([Itzhak et al., 2017]; [Itzhak et al., 2016]). (b) Combined cellular concentrations of ER resident proteins with canonical KDEL, RDEL, and HDEL retrieval sequences in HeLa cells and mouse brain. (c) Competition binding assays for [^3H]-TAEHDEL and unlabelled TAEKDEL, TAERDEL, and TAEHDEL to the KDEL receptor. IC50 values for the competing peptides were used to calculate the apparent KDwith the Cheng-Prusoff equation ([Cheng and Prusoff, 1973]). (d) Endogenous KDEL receptor redistribution was measured in COS-7 cells in the absence (-ligand) or presence of K/R/H/A/DDEL (mScarlet-xDEL^sec). TGN46 was used as a Golgi marker. Scale bar is 10 µm. (e) The mean difference for K/R/H/A/DDEL comparisons against the shared no ligand control are shown as Cummings estimation plots. The individual data points for the fraction of KDEL receptor fluorescence in the Golgi are plotted on the upper axes with sample sizes and p values. Figure 1—source data 1. Source data for the ligand-induced KDELR receptor retrieval assays in Figure 1e. Figure 1—figure supplement 1. Abundance of ER resident proteins and chaperones in human cells and mouse brain. (a) The mean concentration of ER resident chaperones with the indicated ER retrieval sequence variant is plotted in the bar graph ([Itzhak et al., 2017]; [Itzhak et al., 2016]). […] Endogenous ER chaperone secretion was measured by western blotting after challenge with different retrieval signals, and plotted as a bar graph showing mean ± SEM (n = 3). […] (a) Distribution of human KDELR1 and (b) KDELR2 was measured in COS-7 cells in the absence (-ligand) or presence of K/R/H/A/DDEL retrieval signals (K/R/H/A/DDEL^sec). […] The fraction of KDEL receptor localised to the Golgi was measured before (no ligand) and after challenge with different retrieval signals as indicated. […]

[7] = test system: endogenous KDEL receptor in COS-7 cells; experiment: ER retrieval assay, endogenous KDEL receptor redistribution; format: cell-based, African green monkey; conditions: COS-7 cells
Description: as §1, with “1.” for “1. Abundance of ER resident proteins and chaperones in human cells and mouse brain. (a) The mean concentration of ER resident chaperones with the indicated ER retrieval sequence variant is plotted in the bar graph ([Itzhak et al., 2017]; [Itzhak et al., 2016]).”
To create KDELR1-GFP and KDELR2-GFP, the reading frames for Homo sapiens KDELR1 (Uniprot: P24390) and KDELR2 (Uniprot: P33947) were cloned into the pEF5/FRT low level mammalian expression vector with a C-terminal 20 amino acid linker made up of 5 copies of Gly-Ser-Ser-Ser followed by GFP. […]

human KDELR1 = target: T2, human KDELR1 (Homo sapiens, UniProt P24390); experiment: ER retrieval assay, WT KDELR1-GFP; format: cell-based; conditions: COS-7 cells, WT human KDEL receptor-GFP with mScarlet ligand
T2 construct: expressed in transfected cells; host or cells: COS-7
T2 sequence (P24390 whole entry): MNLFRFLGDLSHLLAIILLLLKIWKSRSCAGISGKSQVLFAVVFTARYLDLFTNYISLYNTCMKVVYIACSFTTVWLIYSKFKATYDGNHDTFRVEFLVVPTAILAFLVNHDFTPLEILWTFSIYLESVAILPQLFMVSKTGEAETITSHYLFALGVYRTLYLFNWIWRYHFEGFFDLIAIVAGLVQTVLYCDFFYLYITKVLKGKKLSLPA
Description: To create KDELR1-GFP and KDELR2-GFP, the reading frames for Homo sapiens KDELR1 (Uniprot: P24390) and KDELR2 (Uniprot: P33947) were cloned into the pEF5/FRT low level mammalian expression vector with a C-terminal 20 amino acid linker made up of 5 copies of Gly-Ser-Ser-Ser followed by GFP. Specific point mutations were introduced using the Quickchange protocol (Stratagene) and are described in the key resources table and figures. To create the mScarlet-KDEL^sec ligand construct, mScarlet with an N-terminal hGH signal peptide and the 16 C-terminal residues of human BiP at its C-terminus, containing the KDEL signal, was cloned into the pcDNA3.1 vector. […] The Golgi marker protein TGN46 was detected by antibody (sheep anti-TGN46 AHP500G; AbD Serotec) and an Alexa 647 conjugated secondary anti-sheep secondary (A-21448, Invitrogen). In Figure 1d and e, endogenous KDELR was detected by antibody (mouse anti-KDELR ADI-VAA-PT048; Enzo Life Sciences) and Alexa 488 conjugated anti-mouse secondary antibody (A-21202, Invitrogen). For retrieval assays in other figures, KDELR-GFP fusion proteins were directly detected by fluorescence. The mScarlet-xDEL fusion proteins were directly detected by fluorescence. […] The fraction of KDEL receptor in the Golgi apparatus was calculated by dividing the Golgi signal by the total cell signal. […]

[8] = target: T3, TAEHDEL retrieval signal peptide; experiment: [3H]-peptide filter binding assay, pH 5.4
T3 chain: TAEHDEL

[9] = target: T4, TAEKDEL retrieval signal peptide (BiP) (Homo sapiens); experiment: [3H]-peptide filter binding assay, pH 5.4
T4 chain: TAEKDEL

Molecule: TAEHDEL-NH2 [HDEL^CONH, TAEHDEL-CONH]
IC50 (chicken KDELR2): 1750 ± 170 µM

Molecule: TAEKDEL
localisation of the mScarlet ligand (in words) [7]: retrieved to the ER

Molecule: pcDNA3.1 hGHss-mScarlet-S. cerevisiae BiP667-682 [FEHDEL]
ligand-induced receptor retrieval to the ER (in words) (human KDELR1): functional

B1: KDEL receptor 2 (protein)
chain: T1 sequence (Q5ZKX9 1-212) with E117A
Kd [8]: 0.52 µM | Kd [9]: ~9.3 µM

B2: KDEL receptor 2 (protein)
chain: T1 sequence (Q5ZKX9 1-212) with W120F
Kd [8]: 5.5 µM

B3: KDEL receptor 2 (protein)
chain: T1 sequence (Q5ZKX9 1-212) with E117D
Kd [8]: 0.52 µM | Kd [9]: 2.1 µM

Second part, led by results:

KD (apparent, from IC50) [1]: KD 0.24 µM | KD (apparent, from IC50) [2]: KD 1.94 µM | KD (apparent, from IC50) [3]: KD 2.71 µM | KD ([4]; pH 5.4): 0.26 ± 0.04 µM | fraction of maximal binding ([4]; pH 6.4): ~ 60% maximal binding | KD [5]: 1.9 ± 0.46 µM
Molecule: KDEL receptor 2 (KDELR2, ER lumen protein-retaining receptor 2), wild type
fraction of maximal binding [6]: <20%

binding of C-terminally amidated peptide to wild-type receptor (in words) (chicken KDELR2; amidated C-terminus): completely abolished binding
Molecule: TAEKDEL-CONH [KDEL^CONH, C-amidated peptide variant]

IC50 (chicken KDELR2): 152 ± 21.7 µM
Molecule: TAEKDEL-OH [KDEL, TAEKDEL]
